Experimental data reported in the supplement of paper PMC9112550, “Optimization of the antimicrobial peptide Bac7 by deep mutational scanning” (BMC Biology, 2022).

Tested on: Escherichia coli TOP10
Test: shrunken log2 fold change of peptide-encoding DNA abundance (4.5 h post-induction vs induction); higher = less antimicrobial activity (less host growth inhibition)
Conditions: time post-induction: 4.5 h; library: site-saturation at positions 5, 18, 19, 20
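Also: peptides expressed intracellularly from a pBAD plasmid library in pooled LB shake-flask culture, induced with 0.3% L-arabinose, DNA abundance read by NGS, three biological replicates, DESeq2 with apeglm shrinkage.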

Sequence | shrunken log2 fold change
RRIRDRPPRLPRPRPRPQVFPRP | -0.101
RRIRMRPPRLPRPRPRPQAVPRP | 0.442
RRIRFRPPRLPRPRPRPDADPRP | 0.386
RRIRMRPPRLPRPRPRPHKMPRP | 0.193
RRIRNRPPRLPRPRPRPTPKPRP | 0.222
RRIRVRPPRLPRPRPRPPKHPRP | 0.0761
RRIRVRPPRLPRPRPRPAFPPRP | 0.246
RRIRRRPPRLPRPRPRPDFSPRP | -0.18
RRIRKRPPRLPRPRPRPGTHPRP | 0.213
RRIRDRPPRLPRPRPRPRCLPRP | -0.0519
RRIRMRPPRLPRPRPRPFIFPRP | -0.233
RRIRFRPPRLPRPRPRPVRRPRP | 0.122
RRIRLRPPRLPRPRPRPAMSPRP | 0.019
RRIRTRPPRLPRPRPRPVPVPRP | 0.0547
RRIRGRPPRLPRPRPRPDMQPRP | 0.37
RRIRTRPPRLPRPRPRPDHRPRP | 0.0733
RRIRPRPPRLPRPRPRPCRGPRP | -0.322
RRIRFRPPRLPRPRPRPPQAPRP | 0.558
RRIRERPPRLPRPRPRPEFKPRP | 0.114
RRIRLRPPRLPRPRPRPMALPRP | -0.0125
RRIRWRPPRLPRPRPRPWMKPRP | -0.225
RRIRPRPPRLPRPRPRPIQMPRP | -0.166
RRIRTRPPRLPRPRPRPWWGPRP | 0.221
RRIRARPPRLPRPRPRPPTVPRP | 0.468
RRIRCRPPRLPRPRPRPMAIPRP | -0.132

Sequence | shrunken log2 fold change
RRIRSRPPRLPRPRPRPKDHPRP | -0.131
RRIRIRPPRLPRPRPRPAYYPRP | -0.401
RRIRHRPPRLPRPRPRPECGPRP | 0.322
RRIRNRPPRLPRPRPRPAAYPRP | -0.0872
RRIRFRPPRLPRPRPRPWHEPRP | -0.00448
RRIRERPPRLPRPRPRPNMVPRP | -0.61
RRIRNRPPRLPRPRPRPALGPRP | -0.361
RRIRHRPPRLPRPRPRPVGMPRP | -0.63
RRIRLRPPRLPRPRPRPPQMPRP | 0.304
RRIRIRPPRLPRPRPRPKNMPRP | -0.577
RRIRFRPPRLPRPRPRPYVEPRP | -0.315
RRIRRRPPRLPRPRPRPAARPRP | 0.287
RRIRVRPPRLPRPRPRPTKIPRP | -0.321
RRIRDRPPRLPRPRPRPWMPPRP | -0.11
RRIRGRPPRLPRPRPRPYFMPRP | -0.389
RRIRHRPPRLPRPRPRPNQTPRP | -0.0854
RRIRDRPPRLPRPRPRPFWIPRP | -0.408
RRIRWRPPRLPRPRPRPTNNPRP | 0.0375
RRIRNRPPRLPRPRPRPMFHPRP | -0.678
RRIRRRPPRLPRPRPRPKMAPRP | 0.201
RRIRLRPPRLPRPRPRPMYRPRP | 0.0136
RRIRARPPRLPRPRPRPWDFPRP | -0.00352
RRIRPRPPRLPRPRPRPIFIPRP | -0.389
RRIRKRPPRLPRPRPRPNREPRP | 0.0158
RRIRWRPPRLPRPRPRPEHSPRP | 0.114

Sequence | shrunken log2 fold change
RRIRDRPPRLPRPRPRPDRTPRP | 0.0519
RRIRRRPPRLPRPRPRPLKDPRP | -0.152
RRIRERPPRLPRPRPRPGYEPRP | -0.00204
RRIRTRPPRLPRPRPRPEFNPRP | 0.085
RRIRCRPPRLPRPRPRPMSRPRP | 0.0291
RRIRMRPPRLPRPRPRPDFFPRP | 0.29
RRIRGRPPRLPRPRPRPAQLPRP | 0.435
RRIRFRPPRLPRPRPRPWIYPRP | -0.662
RRIRYRPPRLPRPRPRPCANPRP | -0.0013
RRIRWRPPRLPRPRPRPIGIPRP | -0.0434
RRIRIRPPRLPRPRPRPLQVPRP | -2
RRIRLRPPRLPRPRPRPTHMPRP | 0.0883
RRIRYRPPRLPRPRPRPKGYPRP | -0.0889
RRIRPRPPRLPRPRPRPKKFPRP | 0.0281
RRIRRRPPRLPRPRPRPEWMPRP | 0.126
RRIRHRPPRLPRPRPRPYMTPRP | -0.313
RRIRARPPRLPRPRPRPHHFPRP | -0.0814
RRIRFRPPRLPRPRPRPYHLPRP | -0.643
RRIRNRPPRLPRPRPRPYAWPRP | -0.141
RRIRVRPPRLPRPRPRPTHGPRP | -0.235
RRIRHRPPRLPRPRPRPQVRPRP | -0.134
RRIRNRPPRLPRPRPRPDWAPRP | -0.0406
RRIRIRPPRLPRPRPRPNCYPRP | -0.923
RRIRPRPPRLPRPRPRPPQGPRP | 0.686
RRIRHRPPRLPRPRPRPPTFPRP | -0.0769

Sequence | shrunken log2 fold change
RRIRWRPPRLPRPRPRPWPPPRP | 0.546
RRIRFRPPRLPRPRPRPIHYPRP | -1.14
RRIRQRPPRLPRPRPRPHDNPRP | 1.99
RRIRHRPPRLPRPRPRPAHVPRP | 0.128
RRIRIRPPRLPRPRPRPVWEPRP | 0.108
RRIRDRPPRLPRPRPRPICAPRP | 0.172
RRIRFRPPRLPRPRPRPERRPRP | 0.166
RRIRIRPPRLPRPRPRPVTEPRP | -0.109
RRIRVRPPRLPRPRPRPSFTPRP | -0.301
RRIRERPPRLPRPRPRPWVEPRP | 0.0665
RRIRYRPPRLPRPRPRPEPIPRP | -0.103
RRIRWRPPRLPRPRPRPRPLPRP | 0.158
RRIRPRPPRLPRPRPRPTWFPRP | 0.0698
RRIRFRPPRLPRPRPRPCEIPRP | -0.348
RRIRNRPPRLPRPRPRPIKNPRP | -0.108
RRIRMRPPRLPRPRPRPMHSPRP | 0.126
RRIRTRPPRLPRPRPRPDGSPRP | 0.0485
RRIRKRPPRLPRPRPRPVDKPRP | 0.0581
RRIRRRPPRLPRPRPRPNDTPRP | -0.115
RRIRTRPPRLPRPRPRPEKGPRP | -0.0355
RRIRARPPRLPRPRPRPETWPRP | 0.369
RRIRVRPPRLPRPRPRPNPGPRP | -0.131
RRIRMRPPRLPRPRPRPNAVPRP | 0.0414
RRIRPRPPRLPRPRPRPKMCPRP | 0.0196
RRIRPRPPRLPRPRPRPYHQPRP | 0.0122

Sequence | shrunken log2 fold change
RRIRERPPRLPRPRPRPDNFPRP | 0.00707
RRIRCRPPRLPRPRPRPDIWPRP | 0.116
RRIRSRPPRLPRPRPRPDYTPRP | -0.342
RRIRKRPPRLPRPRPRPIVCPRP | -0.00674
RRIRCRPPRLPRPRPRPEIRPRP | -0.123
RRIRYRPPRLPRPRPRPEYEPRP | -0.0176
RRIRFRPPRLPRPRPRPWHPPRP | -0.409
RRIRVRPPRLPRPRPRPAQWPRP | 0.188
RRIRNRPPRLPRPRPRPYNDPRP | -0.581
RRIRWRPPRLPRPRPRPHFKPRP | -0.179
RRIRQRPPRLPRPRPRPAYQPRP | -0.00193
RRIRRRPPRLPRPRPRPMNSPRP | -0.101
RRIRSRPPRLPRPRPRPVTDPRP | 0.102
RRIRIRPPRLPRPRPRPKRDPRP | -0.106
RRIRQRPPRLPRPRPRPTCWPRP | 0.0954
RRIRPRPPRLPRPRPRPFPGPRP | -0.226
RRIRQRPPRLPRPRPRPWQQPRP | -0.333
RRIRMRPPRLPRPRPRPMMVPRP | -0.00664
RRIRMRPPRLPRPRPRPKPGPRP | 1.31
RRIRLRPPRLPRPRPRPLMKPRP | 0.0215
RRIRYRPPRLPRPRPRPYMQPRP | -0.117
RRIRYRPPRLPRPRPRPQMMPRP | -0.536
RRIRSRPPRLPRPRPRPIYCPRP | -0.876
RRIRTRPPRLPRPRPRPETKPRP | 0.00321
RRIRCRPPRLPRPRPRPHCRPRP | -0.0478
